The source of these data is the nanobody polyreactivity screen of Harvey et al. (2022).

The series can be described thus: yeast display, Sf9 membrane polyspecificity reagent, FACS + sequencing; frameworks hold sequencing errors. The procedure, abridged: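 After 36–48 hours of galactose induction, yeast (Saccharomyces cerevisiae BJ5465) displaying a synthetic nanobody library were stained at 4 °C for 1 hour with 10% biotinylated, detergent-solubilized Sf9 membrane reagent. Streptavidin microbeads enriched the stained cells before FACS sorting into low and high (top ~1%) gates on anti-HA and streptavidin fluorescence. Each clone's polyreactivity label reflects its gate of origin.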
As for “QDQLVESGGGLVQAGGSLRLSGAASGRIFGYYAMGWYRQPPGKETELVARISSGGGSTYYADSVKGRFTISRDNAKNTVYLQLNSLKPEDTAVDYCATVLYPYSPRYDYWGQGTLVTVSS”, the “polyreactivity (PSR sort gate)” value is recorded as “high polyreactivity”.
Then “QDQLVESGGGLVQAGGSLRLSGAASGRTFRRYAKGWDRQAPGKEREWVATISSGGSTYYADSVKGRFTISRDNAKNTVYLQMNSLKPEDTALYYCAVRYWRAYYRYDYWGQGTQVTVSS”, with “high polyreactivity”; and “QDQLVESGGGLVQAGGSLRLTCAASGFIFDRNTMGLYRQATGNDTELVAAISRSGGSTYYSDSVNGRFTISRDNAKNTVYLQMNSMKPEDTAVYNCGALYYYRNRSYYYWGQGTHVTVSS”, with “high polyreactivity”.
In the case of “QDQLVESGGGLVQAGGSLRLTCAASGGIFWSYAMGWYRQAPGKERDLVAAINWNAGSTYYADSVKGRFTISRDNAKNTVYLQMNSLKPEDTAVYYCAKVQWHLYDWGQGTQVTVSS”, the “polyreactivity (PSR sort gate)” value is recorded as “high polyreactivity”.
In the case of “QDQLVESGGGLVQAGGSLSLSCAASGLIFSDNAMGWYRQAPGKERELVATITFSGSTNYADSVKGRFTISRDNAKNTVYLQMNSLKPEDTAVFFCAADAGGGPFEYWGQGTHVTVSS”, the “polyreactivity (PSR sort gate)” value is given as “low polyreactivity”.
Then “QDQLVESGGGLVQAGGSLSLSCAASGRTLWRNTMGWYRQAPGKERELVAAITTRGGSTYYADSVKGRFTISRDTAKNTVYLQLNSLKPEDTAVYYCAARTYTGEGSGRFYYWGQGTQVTVSS”, with “high polyreactivity”; and “QDQLVESGGGLVQAGGSLSLSCAASGSTYDRNAMGWYIQAPGKEREMVAGISFSGGTTYYADSVKGRFTISRDNAKNTVYLQMNRLKPEDTEVYDCAASTYQPGAVPFDYWGQGSQVTVSS”, with “low polyreactivity”.
On to “QDQLVESGGGLVQAGGSLSLSCAASRFIYLTYAMGWSRQAPGKERELVAAISSRGGSTYYADSVKGRFTISRDNAKNTVYLQMNSLKPEDTAVYYCAYTRGKYDYWGQGTQVTVSS”, for which the “polyreactivity (PSR sort gate)” value is “high polyreactivity”.
Take “QDQLVESGGGLVQAGVSLRLRSAASGFISQENAMGWYRQAPGKDRELVATISGSVGITYYADSVKGRFTISRDNAKNTVYLQMNSLKPEDTAVYYCNKEISYLSWGYDYWGLGTQVTVSS”: the “polyreactivity (PSR sort gate)” value is recorded as “low polyreactivity”.
The result for “QDQLVESGGGLVQARGTLRLSCAASGRTFYQNAMGWYRHAPGKEREFVGAITGGTGSTHYADSVKGRFTISRDNAKNTVFLQMNSLKPEDTAVYYCATRYLLGFSRYDYCGQGTQVTVSS” reads “low polyreactivity”; that for “QDQLVESGGGLVQEGGSLRLSCAASGRIFVGYAMGWSRQAPGKERELVAAISSSGGRTYYADSVKGRFTISRDNAKNTVYFQMNSLQPEDTAVYYCAAGRFIWGTWALDYWGQGTQVTVSS”, “high polyreactivity”.
In the case of “QDQLVESGGGLVQPGGSLRLSCAASGTIIPRSAMGWYRQATGKERELVAAISQRGGSTFYADSVKWRFTISRDNAKNTVYLQMNRLKPEVTAVYYCAADPGVQRGHIDRMYYWGQGTQVTVSS”, the “polyreactivity (PSR sort gate)” value is on record as “high polyreactivity”.
Turning to “QDQLVESGGGLVQTGGSLRLSWAASGSTFYNTVMGWYRQAPGKERELVAAINSGGRTYYADSVKGRFTISRDNAKNTVYLQMNSLNPEDTAVYYCAVGYGRAARMDYWGQGTQVTVSS”, the “polyreactivity (PSR sort gate)” value is on record as “high polyreactivity”.
With “QDQLVESGGGLVRAGGSLRLSCAASGSIFVVNAMGLYRQAPGKERELVADINSGGSTNFADSVKGRFTISRDNAKNTVYLQMNSLKPEDTAVYYCAKSAVTGTYDYWGQGTLVTVSS”, the “polyreactivity (PSR sort gate)” value was “low polyreactivity”.
Then “QDQLVESGGVLFQAGGSLRLTCAAYGRILYHYDMGWYRQAPGKERELVAAITRGAGTNYADSVKGRFTISRDNAKNTVYVQMNSLKPEDTAVYYCNADRFIVTRSRRGDYWGQGTQVTVSS”, with “low polyreactivity”; and “QDQLVESGGWLVQAGGTLRLSCAASGRILWFYAMGWYRQAPGKERELVASISGSGGSTFYADSVKGRFTISRDNAKNTVYLQMNRLKPEDTAVYYCAAYKEPYYEEYGYWGQGTQVTVSS”, with “low polyreactivity”; and “QDQLVESGVGIVQAGGSLRLSCAASGSTFGIYAKGWYRQAPGKETELDAAISSGASTNYADSVKGRFTISRDNEKNTVYLQMNSLKQEDTAVYYCAVESVYEYGGYVDSAYDYWGQGTQVTVSS”, with “low polyreactivity”.
Then “QDQLVESGVGLVQAGGILRLSCAASVSTFNRYAMVWYRQAPGKERELVAAISSSGGYTYYADSVKGRFTNSRDNAKNTVYFQMNSLKAEDTAVYYCNAAYRVRRFDYWGQGTQVTVSS”, with “low polyreactivity”.
The result for “QDQLVESGVGLVQAGGSLRLSCAASGRIFGRYSMGWYRQAPGKEMEFVAAISKRGGGTYYADSVKGRFTISRDNAKNTVYLQMNSLKPEDSAVYYCAVDNSPGFDDYDYWGQGTQVTVSS” reads “high polyreactivity”; that for “QDQLVESGVGLVQPGGSLRLSCAASGITFRKYAMGWYRQAPGKERELVAAIRWSGTRTYYADSVKGRFTISRDNAKNTDYLQMNRLKPEDTAVYYCATVYGATPGRSGLDYWGQGTQVTVSS”, “high polyreactivity”.
For the sequence “QDQLVESRGGIVQAVRSLRLSCAASGSIFIDNAMGWYRQAPGKESEFVAAISKSATSTYYADSVKGRFTISRDNAYNTVYLEMKSLIPEDTAVYYCAVRRPRPYSNYYYWGQGTQVNVSS”, the “polyreactivity (PSR sort gate)” value was “high polyreactivity”.
Consider “QDQLVESRGGLVQAGGSLRLSCAASGFTFYYYAMGWYRQAPGKERELVAAISSGGSTYYADSVKGRFTISRDNAKNTVYLQMNSLKPEDTAVYYCARLYRVGRYLFDVDSWGQGTQVTVSS”, for which the “polyreactivity (PSR sort gate)” value is reported as “high polyreactivity”.
The result for “QDQLVESRGGLVQAGGSLRLSCAASGSISVKYAMGWYRQAPGKERELVAAISSDGNTYYADSVKGRFTISRDNAKYNVYLQMNSLKPEDTAVYYCAPAKVSWFGLKYYYWGQGTQVTVSS” reads “high polyreactivity”; that for “QDQLVESRGGLVQAGGSLRLSCAASGSTFGKNTMGWYRQAPGKERELVAAISRGVSTYYADSVKGRFTISRDNAKNTVYLQMNSLKPEDTAVYYCAAQEAYRWYGFDYWGQGTQVTVSS”, “high polyreactivity”.
For “QDQLVESRGGLVQAGGSLRLSCAASGSTLSGNAMGWYRQAPGKERELVAAITSSGGRTYYADSVKGRFTISRDNAKNTVYLQMNSLKPEDTAVYYCAKDRYGWGQGTQVTVSS”, the “polyreactivity (PSR sort gate)” value is recorded as “high polyreactivity”.
Then “QDQLVESRGVIVQAGGSLRLSCAASGRIFSVNAMGWYRQAPGKERELVAAITGSGTITYYADSVKGRFTISRDNAKNIVYLQMNSLKQEDTAVYYCAARPVLRYYAGYYYWGQGTQVTVSS”, with “high polyreactivity”; and “QDQLVESRGVLVQAGGSLRLSCAAYGRIISPYAMGWYRQAPGKERELVAAISRRGTRTNYADSVKGRFTLSRDKAKNTVYLQMNSLKPVDTAVYYCNKTPLLRWGQGTQVSVSS”, with “high polyreactivity”; and “QDQLVESVGGLVQAGGSLRLSCAASGITFYYSAMGWDRQAPGKERELVAAISFRGGSTYYADSVKGRFTSSRDNAKNTVYLQMNSLKPEDTAVYYCAAETSPSWYTWVTYDYWGQGTQVTVSS”, with “high polyreactivity”.
The result for “QDQLVESVGGLVQAGGSLRLSCAASGSIFRLYAMGWYRHAPGKERELVAGITSSDGSTYADSVKGRFTISRDNAKNTVYLQMNSLKPEDTAVYYCAARGYVRWYNRYDYWGQGTQVTVSS” reads “low polyreactivity”; that for “QDQLVESVGGLVQAGGSLRLSCAPTGSTFYGYGLAWSRQSPGKARELVAAITGSGDTTYYADSVKGRFTISRDYANNTVYLQMNSLKPEDTAVYYCNARWHAEYDYWGQGTQVTVSS”, “low polyreactivity”.
In the case of “QDQLVESVGGLVQAGVSLRLSCAASGGTFDVNAMGWYRQATGKERELVATISGGGSTNYADSVKGRFTISRDNAKNTVYLQMNSLKPEETAVYYCAAESEPIRNRERDYWGQGTQVTVSS”, the “polyreactivity (PSR sort gate)” value is recorded as “low polyreactivity”.
Turning to “QDQLVESVGSLVQAGGSHRLSCSASGFIIANNPMGWYRQAPGKERELVATITGGGSTDYADTVKRRFTISRDNAKNTVYLQMNSLKPEDTAVYYCAAEYKYWAFASPSLTTNDSWGQGTQVTVSS”, the “polyreactivity (PSR sort gate)” value is listed as “low polyreactivity”.
The result for “QDQLVESWGCLVQAGGSLRLSCAASRRIFGGHTMGWYRQAPGKERELVAAITSGRSTTYADSVKGRFTISRDNAKNSVYFLMNSLKPEDTAVDYCAARYVYPNQWTPYIRPYDYWGQGTQVTVSS” reads “low polyreactivity”.
In the case of “QDQLVESWVGLVQAGGSLRLSCAASGTISSYAMGWSRQAPGKERELVASIRYRGGSTYYADSVKGRFTISRDNEKNTVYLQINSLKPEDTAVYYCNAVRVPYVRGAKFEYWGQGTQVTVSS”, the “polyreactivity (PSR sort gate)” value is “low polyreactivity”.
Then “QDQLVETGGGLVQAGCSLRLSCAASGRIFVPYAMGWYRQSHGKERELVAAISGSDGSTYYADSVKGRFTISRDNAKNTVYLQMNRLKPEDTAVYYCARLLIYAPPSGSHRYYPFDYWGQGTQETVSS”, with “low polyreactivity”; and “QDQPVDSGRCLVQAGGSLRLSCAASGSTFEVYTMGWYRQAPGQERELVAAITKNGGTTYYADSVKGRFTISRDNAKNTVYLLMNSLKPEDTAVYYCAATWPRYGYGYWGQGTQVTVSS”, with “low polyreactivity”.
Then “QDQRVESGGGLVQAGGSLRLSCAASGSIRGYAMGWYRQAPGKERELVASITWSGGSTYYADSVKGRFTISRDNSKNTVYLQMNSLKPEDPAVFYCAARPSPYASFFRPYDYWGQGTQVTVSS”, with “low polyreactivity”; and “QDQVVESGGGLVQAGGSLRLSCAASGRIFFAYAMGLYRQAAGTERELVAAITSSGNTYYADSVKGRFTISRDNAKNTVFLQINSLKPEDTAVYYCATGYWELRYDYWGQGTQLTVSS”, with “low polyreactivity”.
As to “QDQVVESGGGLVQAGGSLRLSCAASGRTFAIYAMGWYRQAPGKEREFVAAITWRSGSTYYADSVKGRFTISRDNAKNTVYLQMMSVKPEDTAVYFCAAYPYSYLQLMDYWGQGTQVTVSS”, the “polyreactivity (PSR sort gate)” value is reported as “high polyreactivity”.
The result for “QEQLQERAAWCRRAGSLRLSCAASGNISDYYFMGWYRQAPGKERELVAAIAPGSNTYYADSVKGRFTISRDNAKNTVYLQMNSLKPEDTAVCFCAANSTQYTWFDYWGQGTQVPVSS” reads “low polyreactivity”; that for “QEQLQESGGGLVQACGSLRLSCAASGYIFSHQYMGWYRQAPGKERELVASISPRATTNYADSVKGRFTISRDNAKNTVYLQMNSLKPEDTAVYYYAVYQILDRRLSYWGQGTQVTVSC”, “high polyreactivity”.
